In the Human Domainome abundance scans (Beltran et al. 2025):

B1: Homeobox protein SIX6, residues 134 to 184; numbered along this chain, O95475 (parent)
chain: CFKERTRHLLREWYLQDPYPNPSKKRELAQATGLTPTQVGNWFKNRRQRDR
B2: Intersectin-2, residues 1129 to 1183; numbered along this chain, Q9NZM3 (parent)
chain: VCQVIAMYDYAANNEDELSFSKGQLINVMNKDDPDWWQGEINGVTGLFPSNYVKM

Variants of: B1
Test: abundance fitness (aPCA) (normalised: wild type 0, dead -1); higher = more abundant; growth selection in yeast, the domain comes from the species named
Settings: Homo sapiens

Abundance fitness: each site, then its substitutions
L34: K -0.722; M -0.044; N -0.826; P -0.747; Q -0.731; R -0.719; S -0.707; T -0.669; V -0.861; W -0.548; Y -0.587
T35: A -0.846; C -0.979; D -0.663; E -0.399; F -0.773; G -0.886; H -0.749; I -0.885; L -0.733; M -0.703; N -0.581; P -0.877; Q -0.809; R -0.813; S -0.128; W -0.822; Y -0.953
P36: A -0.225; C -0.527; D -0.357; E 0.065; F 0.217; G -0.664; H -0.553; I -0.107; K -0.33; L -0.079; N -0.542; Q -0.246; R -0.603; S -0.177; T -0.125; V -0.17; W -0.328; Y 0.372
T37: A -0.005; C -0.109; D 0.026; E 0.018; F -0.28; G -0.133; H -0.049; I -0.1; K 0.568; L -0.197; M -0.249; N -0.169; P -0.673; Q 0.026; R 0.084; S -0.043; V -0.076; W -0.545; Y -0.236
Q38: A -0.269; C -0.798; D -0.626; E -0.301; F -0.741; G -0.728; H -0.878; I -0.702; K -0.608; L -0.826; M -0.442; N -0.467; P -0.9; R -0.868; S -0.841; T -0.676; V -0.87; W -0.742; Y -0.77
V39: A -0.9; D -0.953; E -0.906; G -0.976; I -0.096; K -0.556; L -0.769; M -0.944; P -0.999; Q -0.455; R -0.882; S -0.934; T -0.99; W -0.896; Y -0.646
G40: A 0.01; C -0.279; D -0.503; E -0.032; F 0.225; H -0.159; K 0.335; L -0.615; M -0.533; N -0.579; P -0.783; Q -0.245; R 0.127; S 0.152; T -0.175; V -0.605; W -0.467
N41: A -0.511; C -0.158; E -0.121; G -0.627; H -0.392; I -0.642; K 0.351; L -0.278; M -0.38; P -1; Q -0.124; R 0.155; S -0.342; T -0.259; V -0.269; W -0.754; Y -0.995
W42: A -1.05; D -0.769; E -0.683; F -0.649; G -0.851; K -0.952; L -0.743; M -0.881; P -0.983; Q -0.726; R -0.762; S -0.898; T -0.581; V -0.931
F43: A -1.01; C -0.893; D -0.775; E -0.821; G -0.577; H -0.858; I -0.649; K -0.881; L -0.904; M -0.94; N -0.882; R -0.92; S -0.872; T -0.927; W -0.926; Y -1.13
K44: A -0.195; C -0.361; D -0.57; E -0.009; F -0.438; G -0.68; I -0.37; L -0.525; M -0.204; P -0.957; Q -0.271; R -0.112; S -0.282; T -0.398; V -0.543; W -0.634; Y -0.604
N45: A -0.378; C -0.39; D -0.261; E -0.266; F -0.712; G -0.481; H -0.123; I -0.394; K -0.13; L -0.401; M -0.386; Q -0.303; R -0.062; S -0.42; T -0.423; V -0.612; W -0.535
R46: A -0.17; C -0.203; D -0.728; E 0.062; F -0.522; H -0.72; I -0.845; K -0.151; L -0.604; M -0.344; N -0.037; Q 0.11; S -0.165; T -0.055; V -0.465; W -0.501; Y -0.505
R47: A -0.635; C -0.662; D -0.84; F -0.501; G -0.762; H -0.762; I -1.01; K -0.861; L -0.633; M -0.786; N -0.613; S -0.845; T -0.825; V -0.756; W -0.425; Y -0.637
Q48: A -0.315; C -0.125; D -0.221; F -0.526; G -0.237; H 0.11; I -0.035; K 0.266; L -0.522; M -0.169; N 0.04; P -0.795; R 0.515; S -0.092; T -0.411; V -0.315; W -0.079; Y 0.226
R49: A -0.278; C -0.376; D -0.074; E 0.049; F -0.238; G -0.357; H -0.889; I -0.482; K -0.203; L -0.277; M -0.489; N -0.287; Q 0.143; S -0.334; T -0.213; V -0.503; W -0.594
D50: A -0.383; C -0.73; E -0.26; F -0.585; G -0.607; H -0.605; I -0.995; K -0.474; L -1.1; M -0.417; N -0.693; P -0.862; Q -0.189; R -0.777; S -0.312; T -0.153; V -0.881; W -0.592; Y -0.878
R51: A -0.353; C -0.691; D -0.25; E -0.094; K -0.133; L -0.431; M -0.499; S -0.646; T -0.529; V -0.545; W -0.832

Variants of: B2
Test: as above
Settings: Homo sapiens

Abundance fitness: each site, then its substitutions
E40: A -0.055; C -0.037
S21: P -0.04
K31: Q -0.039; T 0.102
S50: M 0.004
N42: L -0.068
P49: I -0.49; N -0.106
D9: P -0.098; Y -0.371
T45: E -0.053
A12: V -0.334
Y10: N -0.249
D16: N -0.068; E -0.011
F48: K -1
Q3: L -0.134
L18: M -0.046; S -0.854
Y52: G -0.122
C2: L -0.223; F 0.023
F20: I -0.163
A6: G -0.163
G23: P -1.06; T -0.21
I5: A -0.121
L25: P -0.126
W37: R -0.787
Q24: H -0.154
N13: I -0.071; M -0.014
V1: W -0.391
S19: A -0.045
N30: E -0.046
K54: H -0.068
E15: C -0.048
N51: L -0.149
